Experimental data: patent US20230235040A1 (ALMIRALL S A, published 2023)
Substitutions are numbered along the chain they refer to. Numbers in names are those of the source.

Legend:
[1] = biological target: T1, cy-IL-36β-Avi (in-vivo biotinylated) (cynomolgus monkey, site-specifically biotinylated in vivo on the C-terminal AviTag (BirA)); experiment: SPR (Biacore 8K), in-vivo biotinylated IL-36-Avi captured on CAP chip, bispecific IgG injected, 25°C
T1 construct: also called cy-IL-36J-Avi [sic]; biotinylated cyno IL-36β-Avi
T1 chain: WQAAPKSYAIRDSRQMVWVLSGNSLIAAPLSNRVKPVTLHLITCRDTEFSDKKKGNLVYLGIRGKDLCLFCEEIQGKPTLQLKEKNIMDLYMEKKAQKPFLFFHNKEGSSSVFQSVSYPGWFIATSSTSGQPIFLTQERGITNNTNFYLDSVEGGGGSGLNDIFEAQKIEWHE
Method: (§1) Surface plasmon resonance (SPR) analysis was used to determine the binding affinity for human and cynomolgus monkey IL-36 (“hu-IL-36” and “cy-IL-36,” respectively) using a BIACORE™ 8K instrument as described in Example 2. […] Briefly, a 1:4 dilution of Biotin CAPture Reagent (GE Healthcare) into HBS-EP buffer (0.01 M HEPES pH 7.4, 0.15 M NaCl, 3 mM EDTA, 0.005% Surfactant P20) was applied to a CAP sensor chip at 2 μL/min flow rate. For kinetics measurements, 1 nM biotinylated human and cyno IL-36α-Avi, IL-36γ-Avi; 0.8 nM biotinylated human and cyno IL-36β-Avi were captured at 10 μL/min to achieve 15-25 response units in the second flow cell (FC2). FC1 was kept as a reference. […] The sensorgram was recorded and subject to reference and buffer subtraction before data analysis with the BIACORE® 8K Evaluation Software (version 1.1.1.7442). […] Association rates (kₒₙ) and dissociation rates (koff) were calculated using a simple one-to-one Langmuir binding model. The equilibrium dissociation constant (KD) was calculated as the ratio of koff/kₒₙ.

[2] = biological target: T2, cy-IL-36α-Avi (in-vivo biotinylated) (cynomolgus monkey, limits assumed, site-specifically biotinylated in vivo on the C-terminal AviTag (BirA)); experiment: SPR (Biacore 8K), in-vivo biotinylated IL-36-Avi captured on CAP chip, bispecific IgG injected, 37°C
T2 construct: also called biotinylated cyno IL-36α-Avi
T2 chain: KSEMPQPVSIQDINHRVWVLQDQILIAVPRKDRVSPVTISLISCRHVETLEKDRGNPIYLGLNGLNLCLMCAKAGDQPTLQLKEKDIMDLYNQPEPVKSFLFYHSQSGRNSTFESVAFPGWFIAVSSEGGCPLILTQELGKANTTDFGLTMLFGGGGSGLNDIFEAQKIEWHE
Method: as §1

[3] = biological target: T3, hu-IL-36γ-Avi (in-vivo biotinylated) (human, site-specifically biotinylated in vivo on the C-terminal AviTag (BirA)); experiment: as above
T3 construct: also called biotinylated human IL-36γ-Avi
T3 chain: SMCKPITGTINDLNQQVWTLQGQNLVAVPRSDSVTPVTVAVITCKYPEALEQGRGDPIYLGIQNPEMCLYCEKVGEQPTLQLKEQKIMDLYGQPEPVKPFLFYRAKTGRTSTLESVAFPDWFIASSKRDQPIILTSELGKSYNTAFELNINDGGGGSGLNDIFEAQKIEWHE
Method: as §1

[4] = biological target: T4, hu-IL-36β-Avi (in-vivo biotinylated) (human, site-specifically biotinylated in vivo on the C-terminal AviTag (BirA)); experiment: as above
T4 construct: also called biotinylated human IL-36β-Avi
T4 chain: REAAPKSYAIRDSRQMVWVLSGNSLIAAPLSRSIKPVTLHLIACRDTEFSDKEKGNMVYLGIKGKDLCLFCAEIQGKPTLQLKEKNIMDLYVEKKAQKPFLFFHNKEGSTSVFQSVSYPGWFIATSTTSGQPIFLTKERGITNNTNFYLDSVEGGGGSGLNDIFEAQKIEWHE
Method: as §1

[5] = biological target: T1, cy-IL-36β-Avi (in-vivo biotinylated); experiment: as above
Method: as §1

[6] = biological target: T5, cy-IL-36γ-Avi (in-vivo biotinylated) (cynomolgus monkey, limits assumed, site-specifically biotinylated in vivo on the C-terminal AviTag (BirA)); experiment: as above
T5 construct: also called biotinylated cyno IL-36γ-Avi
T5 chain: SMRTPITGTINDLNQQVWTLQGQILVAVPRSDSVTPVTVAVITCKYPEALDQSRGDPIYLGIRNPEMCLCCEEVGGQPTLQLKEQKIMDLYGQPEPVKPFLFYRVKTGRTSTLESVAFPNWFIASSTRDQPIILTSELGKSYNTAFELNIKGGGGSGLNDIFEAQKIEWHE
Method: as §1

[7] = biological target: T6, hu-IL-36α-Avi (in-vivo biotinylated) (human, site-specifically biotinylated in vivo on the C-terminal AviTag (BirA)); experiment: as above
T6 construct: also called biotinylated human IL-36α-Avi
T6 chain: T2 chain with S2I, E3D, M4T, P7Q, V8G, I24T, V34M, S40A, A74V
Method: as §1

Kd [1]: 0.97 nM
koff [1]: 6.32e-05 s⁻¹
kon [1]: 65200 M⁻¹ s⁻¹
Kd [2]: 2.57 nM
koff [2]: 0.000625 s⁻¹
kon [2]: 243000 M⁻¹ s⁻¹
Kd [3]: 1.63 nM
koff [3]: 0.000341 s⁻¹
kon [3]: 210000 M⁻¹ s⁻¹
Kd [4]: 1.84 nM
koff [4]: 0.000168 s⁻¹
kon [4]: 91400 M⁻¹ s⁻¹
Kd [5]: 2.51 nM
koff [5]: 0.000218 s⁻¹
kon [5]: 86900 M⁻¹ s⁻¹
Kd [6]: 0.94 nM
koff [6]: 0.000148 s⁻¹
kon [6]: 158000 M⁻¹ s⁻¹
Kd [7]: 1.95 nM
koff [7]: 0.000434 s⁻¹
kon [7]: 223000 M⁻¹ s⁻¹
B1: mAb2.10/mAb6_2.7 multispecific common light chain antibody (IgG, knobs-into-holes, N297G) (bispecific antibody)
heavy 1: not shown
heavy 2: not shown
light: ESVLTQPPSVSGAPGQRVTISCTGSSSNIGAHYDVHWYQQLPGTAPKLLIYGNDNRPSGVPDRFSGSKSGTSASLAITGLQAEDEADYYCQSYDYSLSGYVFGGGTKLTVLGQPKAAPSVTLFPPSSEELQANKATLVCLISDFYPGAVTVAWKADSSPVKAGVETTTPSKQSNNKYAASSYLSLTPEQWKSHKSYSCQVTHEGSTVEKTVAPTECS
notes: tags removed; also called mAb2.10/mAb6_2.7 IgG; anti-IL-36 multispecific antibody
